Our source for the Kd and ADCC (LDH release), SK-BR-3 target cells, human PBMCs as effector cells, E/T 50/1; fold against pertuzumab^Fuc+SA+; allotype of the donors' FcγRIIIa not stated values is PMC5387714.

One assay addresses Val176 CD16a (human) (UniProt P08637). Briefly: MST; ligands (HER2, CD16a, FcRn) labelled with RED-NHS; 10 μL labelled ligand mixed with 10 μL gradient mAb; Monolith NT.115, 40% IR-laser power; fit with the Hill equation in Prism.
The target of assay [1] is Phe176 CD16a (human) (UniProt P08637). Described as above.
The target in a further assay is Human FcRn (human) (UniProt P55899). The description is as above.
Sequence of UniProt P55899 (P55899 24-297): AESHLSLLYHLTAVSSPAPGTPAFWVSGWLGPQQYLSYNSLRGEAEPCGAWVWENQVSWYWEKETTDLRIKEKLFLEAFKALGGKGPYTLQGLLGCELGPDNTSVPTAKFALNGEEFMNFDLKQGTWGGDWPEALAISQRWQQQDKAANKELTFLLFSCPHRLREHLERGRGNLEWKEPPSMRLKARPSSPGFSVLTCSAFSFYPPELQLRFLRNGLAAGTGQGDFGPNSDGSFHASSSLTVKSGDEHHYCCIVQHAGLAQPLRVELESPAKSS
In assay [2] the target is Phe176 CD16a (human) (UniProt P08637).

On to Pertuzumab^Fuc−SA− (antibody), for which the figures for the Kd with Val176 CD16a (human), with Phe176 CD16a (human) [1] and in the assay with Human FcRn (human) were 0.02 nM, 0.13 nM and 0.82 nM, respectively. In the assay with Phe176 CD16a (human) [2], this substance displayed an ADCC (LDH release), SK-BR-3 target cells, human PBMCs as effector cells, E/T 50/1; fold against pertuzumab^Fuc+SA+; allotype of the donors' FcγRIIIa not stated of 20 fold.
Regarding Pertuzumab^Fuc+SA+ (antibody), the Kd (commonly the free concentration of one partner at which half of the binding sites on the other are occupied at equilibrium, for simple one-to-one binding) worked out at 0.35 nM with Val176 CD16a (human), 1.31 nM with Phe176 CD16a (human) [1] and 0.86 nM with Human FcRn (human).
As to Pertuzumab^Fuc−SA+ (antibody), the equilibrium dissociation constant (Kd) with Phe176 CD16a (human) [1] was 0.29 nM; in the assay with Human FcRn (human), 0.84 nM.
On the same counts, the results for Pertuzumab^Fuc+SA− (antibody) are 0.45 nM and 0.83 nM.
